Like-named read-outs stand apart in the source and are kept apart here.
Legend:
Experiment in all cases: cell-based or functional assay
MITF [1] = target: T1, MITF (Homo sapiens (Human), UniProt O75030-9)
SOX10 [2] = target: T2, SOX10 (Homo sapiens (Human), UniProt P56693)
STAT3 [3] = target: T3, STAT3 (Homo sapiens (Human), UniProt P40763)
SOX10 [4] = target: T2, SOX10; remark: listed apart in the source
MITF [5] = target: T1, MITF; remark: listed apart in the source
STAT3 [6] = target: T3, STAT3; remark: listed apart in the source

Row | Binder | Apoptosis 7 d/% in SK-MEL-28 (MITF [1]) [%] | Apoptosis 7 d/% in SK-MEL-28 (SOX10 [2]) [%] | Apoptosis 7 d/% in SK-MEL-28 (STAT3 [3]) [%] | Apoptosis 7 d/% in SK-MEL-28 (SOX10 [4]) [%] | also measured
1 | Scr-int1M (peptide) peptide: TTGGSSPQGLEAKRPKKRKVRRRQLMLEPYALDMSRIRVLSESLGLATQSG | 0 | 0 | 0 |  | 
2 | RPKKRKVRRRVKRPMNAFMVWAQAARRKLADQY [SOX10-int1] |  |  |  | 55 | 
3 | RPKKRKVRRRQLMLEPYALDMSRIRVLSESLGLATQSG [Scr-int1] |  |  |  | 0 | Apoptosis 7 d/% in SK-MEL-28 (MITF [5]): 0%; Apoptosis 7 d/% in SK-MEL-28 (STAT3 [6]): 0%
4 | TTGGSSPQGLEAKRPKKRKVRRRFNINDRIKELGTLIPKSNDPDMRWN [MITF-int1M] | 20 |  |  |  | 
5 | TTGGSSPQGLEAKRPKKRKVRRRVKRPMNAFMVWAQAARRKLADQY [SOX10-int1M] |  | 32 |  |  | 
6 | STAT3-int1M (peptide) peptide: TTGGSSPQGLEAKRPKKRKVRRRKMQQLEQMLTALDQMRRSIVSELAGLLS |  |  | 12 |  | 

From US20060014712A1 (CeMines, Inc., published 2006)
